This note sets out measurements from the Human Domainome abundance scans (Beltran et al. 2025).

± gives the uncertainty stated by the source.

Sequences and labels used below:
B1: Steroid hormone receptor ERR2, residues 100 to 176; numbered along this chain, O95718 (parent)
chain: KRLCLVCGDIASGYHYGVASCEACKAFFKRTIQGNIEYSCPATNECEITKRRRKSCQACRFMKCLKVGMLKEGVRLD

The variants in the series derive from B1. Description: abundance fitness (aPCA) (normalised: wild type 0, dead -1); higher = more abundant; growth selection in yeast, the domain comes from the species named. Particulars: Homo sapiens.
Regarding KRLCLVCGDIASGYHYGVASCEACKAFFKRTIQGNIEYSCPATNECEITKRRRKSCQDCRFMKCLKVGMLKEGVRLD [A58D], the abundance fitness was -0.334 ± 0.098.
Next, KRLCLVCGDIASGYHYGVASCEACKAFFKRTIQGNIEYSCPATNECEITKRRRKSCQRCRFMKCLKVGMLKEGVRLD [A58R]: -0.076 ± 0.04; KRLCLVCGDIASGYHYGVASCEACKAFFKRTIQGNIEYSCPATNECEITKRRRKSCQECRFMKCLKVGMLKEGVRLD [A58E]: -0.235 ± 0.059.
Then KRLCLVCGDIASGYHYGVASCEACKAFFKRTIQGNIEYSCPATNECEITKRRRKSCQWCRFMKCLKVGMLKEGVRLD [A58W], with -0.308 ± 0.059; and KRLCLVCGDIASGYHYGVASCEACKAFFKRTIQGNIEYSCPATNECEITKRRRKSCQGCRFMKCLKVGMLKEGVRLD [A58G], with -0.205 ± 0.043; and KRLCLVCGDIASGYHYGVASCEACKAFFKRTIQGNIEYSCPATNECEITKRRRKSCQQCRFMKCLKVGMLKEGVRLD [A58Q], with -0.145 ± 0.06.
Next, KRLCLVCGDIASGYHYGVASCEACKAFFKRTIQGNIEYSCPATNECEITKRRRKSCQPCRFMKCLKVGMLKEGVRLD [A58P]: -0.61 ± 0.14; KRLCLVCGDIASGYHYGVASCEACKAFFKRTIQGNIEYSCPATNECEITKRRRKSCQVCRFMKCLKVGMLKEGVRLD [A58V]: -0.772 ± 0.097; KRLCLVCGDIASGYHYGVASCEACKAFFKRTIQGNIEYSCPATNECEITKRRRKSCQLCRFMKCLKVGMLKEGVRLD [A58L]: -0.44 ± 0.056.
Turning to KRLCLVCGDIASGYHYGVASCEACKAFFKRTIQGNIEYSCPATNECEITKRRRKSCQHCRFMKCLKVGMLKEGVRLD [A58H], the abundance fitness is -0.445 ± 0.13.
Then KRLCLVCGDIASGYHYGVASCEACKAFFKRTIQGNIEYSCPATNECEITKRRRKSCQCCRFMKCLKVGMLKEGVRLD [A58C], with -0.346 ± 0.078.
Then KRLCLVCGDIASGYHYGVASCEACKAFFKRTIQGNIEYSCPATNECEITKRRRKSCQSCRFMKCLKVGMLKEGVRLD [A58S], with -0.33 ± 0.065.
Then KRLCLVCGDIASGYHYGVASCEACKAFFKRTIQGNIEYSCPATNECEITKRRRKSPQACRFMKCLKVGMLKEGVRLD [C56P], with -0.666 ± 0.15; and KRLCLVCGDIASGYHYGVASCEACKAFFKRTIQGNIEYSCPATNECEITKRRRKSTQACRFMKCLKVGMLKEGVRLD [C56T], with -0.691 ± 0.14.
Take KRLCLVCGDIASGYHYGVASCEACKAFFKRTIQGNIEYSCPATNECEITKRRRKSNQACRFMKCLKVGMLKEGVRLD [C56N]: the abundance fitness is -0.845 ± 0.25.
Next, KRLCLVCGDIASGYHYGVASCEACKAFFKRTIQGNIEYSCPATNECEITKRRRKSWQACRFMKCLKVGMLKEGVRLD [C56W]: -0.722 ± 0.14; KRLCLVCGDIASGYHYGVASCEACKAFFKRTIQGNIEYSCPATNECEITKRRRKSEQACRFMKCLKVGMLKEGVRLD [C56E]: -0.627 ± 0.1.
For the variant KRLCLVCGDIASGYHYGVASCEACKAFFKRTIQGNIEYSCPATNECEITKRRRKSYQACRFMKCLKVGMLKEGVRLD [C56Y], the abundance fitness was -0.884 ± 0.24.
As for KRLCLVCGDIASGYHYGVASCEACKAFFKRTIQGNIEYSCPATNECEITKRRRKSAQACRFMKCLKVGMLKEGVRLD [C56A], the abundance fitness was -0.828 ± 0.12.
Regarding KRLCLVCGDIASGYHYGVASCEACKAFFKRTIQGNIEYSCPATNECEITKRRRKSDQACRFMKCLKVGMLKEGVRLD [C56D], the abundance fitness is -1.17 ± 0.32.
As to KRLCLVCGDIASGYHYGVASCEACKAFFKRTIQGNIEYSCPATNECEITKRRRKSFQACRFMKCLKVGMLKEGVRLD [C56F], the abundance fitness is -0.936 ± 0.21.
Then KRLCLVCGDIASGYHYGVASCEACKAFFKRTIQGNIEYSCPATNECEITKRRRKSHQACRFMKCLKVGMLKEGVRLD [C56H], with -0.599 ± 0.19; and KRLCLVCGDIASGYHYGVASCEACKAFFKRTIQGNIEYSCPATNECEITKRRRKSRQACRFMKCLKVGMLKEGVRLD [C56R], with -0.872 ± 0.097; and KRLCLVCGDIASGYHYGVASCEACKAFFKRTIQGNIEYSCPATNECEITKRRRKSGQACRFMKCLKVGMLKEGVRLD [C56G], with -0.718 ± 0.073.
Then KRLCLVCGDIASGYHYGVASCEACKAFFKRTIQGNIEYSCPATNECEITKRRRKSMQACRFMKCLKVGMLKEGVRLD [C56M], with -0.9 ± 0.16; and KRLCLVCGDIASGYHYGVASCEACKAFFKRTIQGNIEYSCPATNECEITKRRRKSSQACRFMKCLKVGMLKEGVRLD [C56S], with -0.847 ± 0.12.
Next, KRLCLVCGDIASGYHYGVASCEACKAFFKRTIQGNIEYSCPATNECEITKRRRKSLQACRFMKCLKVGMLKEGVRLD [C56L]: -0.76 ± 0.085; KRLCLVCGDIASGYHYGVASCEACKAFFKRTIQGNIEYSCPATNECEITKRRRKSIQACRFMKCLKVGMLKEGVRLD [C56I]: -0.679 ± 0.18.
For the variant KRLCLVCGDIASGYHYGVASCEACKAFFKRTIQGNIEYSCPATNECEITKRRRKWCQACRFMKCLKVGMLKEGVRLD [S55W], the abundance fitness worked out at 0.263 ± 0.051.
As for KRLCLVCGDIASGYHYGVASCEACKAFFKRTIQGNIEYSCPATNECEITKRRRKPCQACRFMKCLKVGMLKEGVRLD [S55P], the abundance fitness was 0.257 ± 0.069.
Next, KRLCLVCGDIASGYHYGVASCEACKAFFKRTIQGNIEYSCPATNECEITKRRRKTCQACRFMKCLKVGMLKEGVRLD [S55T]: 0.277 ± 0.058.
Next, KRLCLVCGDIASGYHYGVASCEACKAFFKRTIQGNIEYSCPATNECEITKRRRKRCQACRFMKCLKVGMLKEGVRLD [S55R]: 0.22 ± 0.041.
Next, KRLCLVCGDIASGYHYGVASCEACKAFFKRTIQGNIEYSCPATNECEITKRRRKYCQACRFMKCLKVGMLKEGVRLD [S55Y]: 0.206 ± 0.079; KRLCLVCGDIASGYHYGVASCEACKAFFKRTIQGNIEYSCPATNECEITKRRRKNCQACRFMKCLKVGMLKEGVRLD [S55N]: 0.405 ± 0.085; KRLCLVCGDIASGYHYGVASCEACKAFFKRTIQGNIEYSCPATNECEITKRRRKLCQACRFMKCLKVGMLKEGVRLD [S55L]: 0.341 ± 0.042.
Consider KRLCLVCGDIASGYHYGVASCEACKAFFKRTIQGNIEYSCPATNECEITKRRRKMCQACRFMKCLKVGMLKEGVRLD [S55M], for which the abundance fitness stood at 0.374 ± 0.062.
